Source: patent US20210121563A1 (Novartis, published 2021)

Legend:
[1] = biological target: T1, Programmed Death 1 (PD-1) (UniProt Q15116 25-288, limits assumed); assay: rank of the clone in the competition binding assay with labeled murine mAb BAP049, 1st experiment; higher number = worse
[2] = biological target: T1, Programmed Death 1 (PD-1); assay: rank of the clone in the competition binding assay with labeled murine mAb BAP049, 2nd experiment; higher number = worse
[3] = biological target: T1, Programmed Death 1 (PD-1); assay: rank of the clone among the 16 humanized clones by FACS binding data; higher number = worse
[4] = biological target: T1, Programmed Death 1 (PD-1); assay: FACS blocking of ligand-Ig binding to PD-1, MFI of bound ligand; ligand by the legend paragraph 125 'PD-L1-Ig and PD-L2-Ig' (no ligand named on the sheet; FIG. 8B is PD-L2-Ig, so most likely PD-L1-Ig); cells not named

T1 sequence (Q15116 25-288 limits assumed): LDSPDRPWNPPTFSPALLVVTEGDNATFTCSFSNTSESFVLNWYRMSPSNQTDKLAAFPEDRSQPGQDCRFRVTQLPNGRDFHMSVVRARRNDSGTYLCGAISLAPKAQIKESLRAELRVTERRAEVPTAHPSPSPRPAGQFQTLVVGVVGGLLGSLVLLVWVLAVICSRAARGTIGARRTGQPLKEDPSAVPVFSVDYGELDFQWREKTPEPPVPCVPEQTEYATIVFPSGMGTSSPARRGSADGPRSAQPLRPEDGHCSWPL

| Binder | Competition Binding, 1st exp. (rank) [1] | Competition Binding, 2nd exp. (rank) [2] | Ranking, FACS data [3] | IC50 (read off the curve) [4] [µg/mL] |
| --- | --- | --- | --- | --- |
| BAP049-hum10 (antibody, human IgG4 S228P, kappa, also called humanized BAP049 clone hum10) heavy: not shown light: EIVLTQSPATLSLSPGERATLSCKSSQSLLDSGNQKNFLTWYQQKPGQAPRLLIYWASTRESGVPSRFSGSGSGTDFTFTISSLEAEDAATYYCQNDYSYPYTFGQGTKVEIKRTVAAPSVFIFPPSDEQLKSGTASVVCLLNNFYPREAKVQWKVDNALQSGNSQESVTEQDSKDSTYSLSSTLTLSKADYEKHKVYACEVTHQGLSSPVTKSFNRGEC | 6 | > 4 | 7 |  |
| BAP049-hum04 (antibody, human IgG4 S228P, kappa, V domains shown, also called Clone No. 4) VH: EVQLVQSGAEVKKPGESLRISCKGSGYTFTTYWMHWIRQSPSRGLEWLGNIYPGTGGSNFDEKFKNRFTISRDNSKNTLYLQMNSLRAEDTAVYYCTRWTTGTGAYWGQGTTVTVSS VL: EIVLTQSPATLSLSPGERATLSCKSSQSLLDSGNQKNFLTWYQQKPGKAPKLLIYWASTRESGVPSRFSGSGSGTDFTFTISSLQPEDIATYYCQNDYSYPYTFGQGTKVEIKR | 15 | 15 | 14 |  |
| BAP049-hum08 (antibody, human IgG4 S228P, kappa, also called humanized BAP049 clone hum08) heavy: not shown light: EIVLTQSPDFQSVTPKEKVTITCKSSQSLLDSGNQKNFLTWYQQKPGQAPRLLIYWASTRESGVPSRFSGSGSGTDFTFTISSLEAEDAATYYCQNDYSYPYTFGQGTKVEIKRTVAAPSVFIFPPSDEQLKSGTASVVCLLNNFYPREAKVQWKVDNALQSGNSQESVTEQDSKDSTYSLSSTLTLSKADYEKHKVYACEVTHQGLSSPVTKSFNRGEC | 7 | 4 | 7 |  |
| BAP049-hum14 (antibody, human IgG4 S228P, kappa, also called Clone No. 14) heavy: not shown light: EIVLTQSPATLSLSPGERATLSCKSSQSLLDSGNQKNFLTWYQQKPGQAPRLLIYWASTRESGVPSRFSGSGSGTDFTFTISSLEAEDAATYYCQNDYSYPYTFGQGTKVEIKRTVAAPSVFIFPPSDEQLKSGTASVVCLLNNFYPREAKVQWKVDNALQSGNSQESVTEQDSKDSTYSLSSTLTLSKADYEKHKVYACEVTHQGLSSPVTKSFNRGEC | 7 | 15 | 16 |  |
| BAP049-hum15 (antibody, human IgG4 S228P, kappa, also called Clone No. 15) heavy: not shown light: EIVLTQSPDFQSVTPKEKVTITCKSSQSLLDSGNQKNFLTWYQQKPGQAPRLLIYWASTRESGVPSRFSGSGSGTDFTFTISSLEAEDAATYYCQNDYSYPYTFGQGTKVEIKRTVAAPSVFIFPPSDEQLKSGTASVVCLLNNFYPREAKVQWKVDNALQSGNSQESVTEQDSKDSTYSLSSTLTLSKADYEKHKVYACEVTHQGLSSPVTKSFNRGEC | 7 | 15 | 6 |  |
| BAP049-hum16 (antibody, human IgG4 S228P, kappa, V domains shown, also called Clone No. 16) VH: EVQLVQSGAEVKKPGESLRISCKGSGYTFTTYWMHWVRQAPGQGLEWMGNIYPGTGGSNFDEKFKNRFTISRDNSKNTLYLQMNSLRAEDTAVYYCTRWTTGTGAYWGQGTTVTVSS VL: EIVLTQSPDFQSVTPKEKVTITCKSSQSLLDSGNQKNFLTWYQQKPGQAPRLLIYWASTRESGVPSRFSGSGSGTDFTFTISSLEAEDAATYYCQNDYSYPYTFGQGTKVEIKR | 16 | 15 | 15 |  |
| BAP049-hum11 (antibody, human IgG4 S228P, kappa, also called humanized BAP049 clone hum11) heavy: not shown light: EIVLTQSPATLSLSPGERATLSCKSSQSLLDSGNQKNFLTWYQQKPGQAPRLLIYWASTRESGVPSRFSGSGSGTDFTFTISSLEAEDAATYYCQNDYSYPYTFGQGTKVEIKRTVAAPSVFIFPPSDEQLKSGTASVVCLLNNFYPREAKVQWKVDNALQSGNSQESVTEQDSKDSTYSLSSTLTLSKADYEKHKVYACEVTHQGLSSPVTKSFNRGEC | 4 | > 4 | 6 |  |
| BAP049-hum01 (antibody, human IgG4 S228P, kappa, V domains shown, also called humanized BAP049 clone hum01) VH: EVQLVQSGAEVKKPGESLRISCKGSGYTFTTYWMHWVRQATGQGLEWMGNIYPGTGGSNFDEKFKNRVTITADKSTSTAYMELSSLRSEDTAVYYCTRWTTGTGAYWGQGTTVTVSS VL: EIVLTQSPATLSLSPGERATLSCKSSQSLLDSGNQKNFLTWYQQKPGQAPRLLIYWASTRESGVPSRFSGSGSGTEFTLTISSLQPDDFATYYCQNDYSYPYTFGQGTKVEIKR | 7 | 2 | 2 |  |
| BAP049-hum05 (antibody, human IgG4 S228P, kappa, V domains shown, also called humanized BAP049 clone hum05) VH: EVQLVQSGAEVKKPGESLRISCKGSGYTFTTYWMHWVRQATGQGLEWMGNIYPGTGGSNFDEKFKNRVTITADKSTSTAYMELSSLRSEDTAVYYCTRWTTGTGAYWGQGTTVTVSS VL: EIVLTQSPATLSLSPGERATLSCKSSQSLLDSGNQKNFLTWYQQKPGKAPKLLIYWASTRESGVPSRFSGSGSGTDFTFTISSLQPEDIATYYCQNDYSYPYTFGQGTKVEIKR | 5 | > 4 | 5 |  |
| BAP049-hum06 (antibody, human IgG4 S228P, kappa, also called Clone No. 6) heavy: not shown light: DIVMTQTPLSLPVTPGEPASISCKSSQSLLDSGNQKNFLTWYQQKPGQAPRLLIYWASTRESGVPSRFSGSGSGTDFTFTISSLEAEDAATYYCQNDYSYPYTFGQGTKVEIKRTVAAPSVFIFPPSDEQLKSGTASVVCLLNNFYPREAKVQWKVDNALQSGNSQESVTEQDSKDSTYSLSSTLTLSKADYEKHKVYACEVTHQGLSSPVTKSFNRGEC | 7 | 3 | 1 |  |
| BAP049-hum07 (antibody, human IgG4 S228P, kappa, also called Clone No. 7) heavy: not shown light: EIVLTQSPATLSLSPGERATLSCKSSQSLLDSGNQKNFLTWYQQKPGKAPKLLIYWASTRESGVPSRFSGSGSGTDFTFTISSLEAEDAATYYCQNDYSYPYTFGQGTKVEIKRTVAAPSVFIFPPSDEQLKSGTASVVCLLNNFYPREAKVQWKVDNALQSGNSQESVTEQDSKDSTYSLSSTLTLSKADYEKHKVYACEVTHQGLSSPVTKSFNRGEC | 7 | > 4 | 4 |  |
| BAP049-hum09 (antibody, human IgG4 S228P, kappa, also called humanized BAP049 clone hum09) heavy: not shown light: EIVLTQSPDFQSVTPKEKVTITCKSSQSLLDSGNQKNFLTWYQQKPGQAPRLLIYWASTRESGVPSRFSGSGSGTDFTFTISSLEAEDAATYYCQNDYSYPYTFGQGTKVEIKRTVAAPSVFIFPPSDEQLKSGTASVVCLLNNFYPREAKVQWKVDNALQSGNSQESVTEQDSKDSTYSLSSTLTLSKADYEKHKVYACEVTHQGLSSPVTKSFNRGEC | 2 | 4 | 7 | ~0.7 |
| Chi mAb (Tyr) (antibody, human IgG4 S228P, kappa, V domains shown, also called BAP049-chi-Y; Chi (Tyr)) VH: QVQLQQSGSELVRPGASVKLSCKASGYTFTTYWMHWVRQRPGQGLEWIGNIYPGTGGSNFDEKFKNRTSLTVDTSSTTAYMHLASLTSEDSAVYYCTRWTTGTGAYWGQGTTVTVSS VL: DIVMTQSPSSLTVTAGEKVTMSCKSSQSLLDSGNQKNFLTWYQQKPGQPPKLLIFWASTRESGVPDRFTGSGSVTDFTLTISSVQAEDLAVYYCQNDYSYPYTFGQGTKVEIKR |  |  |  | ~0.8 |
| Mu mAb (antibody, V domains shown, also called murine anti-PD-1 mAb BAP049; Mu mAb control) VH: QVQLQQSGSELVRPGASVKLSCKASGYTFTTYWMHWVRQRPGQGLEWIGNIYPGTGGSNFDEKFKNRTSLTVDTSSTTAYMHLASLTSEDSAVYYCTRWTTGTGAYWGQGTLVTVSA VL: DIVMTQSPSSLTVTAGEKVTMSCKSSQSLLDSGNQKNFLTWYQQKPGQPPKLLIFWASTRESGVPDRFTGSGSVTDFTLTISSVQAEDLAVYYCQNDYSYPCTFGGGTKLEIK |  |  |  | ~0.6 |
| BAP049-hum02 (antibody, human IgG4 S228P, kappa, V domains shown, also called Clone No. 2) VH: EVQLVQSGAEVKKPGESLRISCKGSGYTFTTYWMHWVRQATGQGLEWMGNIYPGTGGSNFDEKFKNRVTITADKSTSTAYMELSSLRSEDTAVYYCTRWTTGTGAYWGQGTTVTVSS VL: DIQMTQSPSSLSASVGDRVTITCKSSQSLLDSGNQKNFLTWYQQKPGQAPRLLIYWASTRESGIPPRFSGSGYGTDFTLTINNIESEDAAYYFCQNDYSYPYTFGQGTKVEIKR | 3 | 2 | 6 |  |
| BAP049-hum03 (antibody, human IgG4 S228P, kappa, V domains shown, also called Clone No. 3) VH: EVQLVQSGAEVKKPGESLRISCKGSGYTFTTYWMHWIRQSPSRGLEWLGNIYPGTGGSNFDEKFKNRFTISRDNSKNTLYLQMNSLRAEDTAVYYCTRWTTGTGAYWGQGTTVTVSS VL: DIQMTQSPSSLSASVGDRVTITCKSSQSLLDSGNQKNFLTWYQQKPGQAPRLLIYWASTRESGIPPRFSGSGYGTDFTLTINNIESEDAAYYFCQNDYSYPYTFGQGTKVEIKR | 8 | 14 | 7 |  |
| BAP049-hum12 (antibody, human IgG4 S228P, kappa, V domains shown, also called Clone No. 12) VH: EVQLVQSGAEVKKPGESLRISCKGSGYTFTTYWMHWVRQATGQGLEWMGNIYPGTGGSNFDEKFKNRVTITADKSTSTAYMELSSLRSEDTAVYYCTRWTTGTGAYWGQGTTVTVSS VL: DIQMTQSPSSLSASVGDRVTITCKSSQSLLDSGNQKNFLTWYLQKPGQSPQLLIYWASTRESGVPSRFSGSGSGTDFTFTISSLEAEDAATYYCQNDYSYPYTFGQGTKVEIKR | 8 | 16 | 3 |  |
| BAP049-hum13 (antibody, human IgG4 S228P, kappa, also called Clone No. 13) heavy: not shown light: DVVMTQSPLSLPVTLGQPASISCKSSQSLLDSGNQKNFLTWYQQKPGKAPKLLIYWASTRESGVPSRFSGSGSGTDFTFTISSLEAEDAATYYCQNDYSYPYTFGQGTKVEIKRTVAAPSVFIFPPSDEQLKSGTASVVCLLNNFYPREAKVQWKVDNALQSGNSQESVTEQDSKDSTYSLSSTLTLSKADYEKHKVYACEVTHQGLSSPVTKSFNRGEC | 1 | 1 | 6 |  |
